Consider five substances from patent publication US20190375786A1, “STABLE PEPTIDES AND METHODS OF USE THEREOF” (Fred Hutchinson Cancer Research Center, priority 2016, published 2019).

Data set [1] in a line: Resistance to elevated temperature, HPLC. To be noted: HPLC peak vs untreated peptide; for Resistance to Temperature (75° C.): 75° C. for one hour; for Resistance to Temperature (100° C.): 100° C. for one hour. In kind it is physicochemical. Here is the method: (§1) Peptides were first suspended in 500 μl of ddH2O to a stock concentration of 2 mg/ml. Reactions were prepared by adding 12.5 μg of peptide from the stock solution to a 10 mM solution of DTT in PBS and allowed to incubate at room temperature for 30 minutes. Other reactions were prepared with 12.5 μg peptide and 500 U/ml trypsin in 25 mM Tris/75 mM NaCl buffer (pH 7.0) and incubated for 30 minutes at 37.5° C. These reactions were then quenched with 5 μg of soybean trypsin inhibitor (I) and, in some cases, 10 mM dithiothreitol (DTT). Reversed phase HPLC (RP-HPLC) was run on samples using an Agilent 1260 HPLC equipped with a C-18 Poroshell 120B column. Sample were analyzed by a gradient method with a mobile phase of Solvent A (water with 0.1% TFA) and Solvent B (acetonitrile with 0.1% TFA). Solvent B was ramped up from 5%-45% of the mobile phase over a period of 10 minutes. For testing pepsin digestion resistance, reactions were prepared with 12.5 μg peptide with or without 500 U/ml pepsin in simulated gastric fluid (SGF; pH 1.05; […] sodium chloride in 0.7% (v/v) hydrochloric acid) and were incubated for 30 minutes at 37.5° C. For testing temperature resistance, peptides were incubated at 70° C., 75° C., or 100° C. for one hour in 0.5 mM PBS, pelleted, and then the supernatant was analyzed by HPLC.
This example illustrates peptide stability at high temperatures. Peptides were first suspended in 500 μl of ddH2O to a stock concentration of 2 mg/ml. Reactions were prepared by adding 6.25 μl of peptide from the stock solution with 95 μl ddH2O and incubated at room temperature, 70° C., or 100° C. for one hour in a Thermocycler. RP-HPLC was then run on samples using an Agilent 1260 HPLC equipped with a C-18 Poroshell 120B column. Sample were analyzed by a gradient method with a mobile phase of Solvent A (water with 0.1% TFA) and Solvent B (acetonitrile with 0.1% TFA). Solvent B was ramped up from 5%-45% of the mobile phase over a period of 10 minutes.

The nature of data set [2]: Resistance to reduction by DTT, RP-HPLC. To be noted: 10 mM DTT in PBS, room temperature, 30 minutes; HPLC peak vs untreated peptide. It counts as physicochemical. The method, then:
Peptides were first suspended in 500 ul of ddH2O to a stock concentration of 2 mg/ml. Reactions were prepared by adding 12.5 ug of peptide from the stock solution to a 10 mM solution of DTT in PBS and allowed to incubate at room temperature for 30 minutes. Other reactions were prepared with 12.5 μg peptide with or without 500 U/ml pepsin in simulated gastric fluid (SGF; pH 1.05; […] sodium chloride in 0.7% (v/v) hydrochloric acid) and were incubated for 30 minutes at 37.5° C. Some reactions were quenched with a final concentration of 100 mM Tris base and 10 mM dithiothreitol (DTT). Some reactions were performed in all of the above components, including simulated gastric fluid, pepsin, Tris, and DTT (referred to as SPTD). Reversed phase HPLC (RP-HPLC) was run on samples using an Agilent 1260 HPLC equipped with a C-18 Poroshell 120B column. Sample were analyzed by a gradient method with a mobile phase of Solvent A (water with 0.1% TFA) and Solvent B (acetonitrile with 0.1% TFA). Solvent B was ramped up from 5%-45% of the mobile phase over a period of 10 minutes. Peptides were detected at an absorbance of 214 nm and 280 nm.
as §1
This example illustrates peptide stability in biological conditions including in the presence of reducing agents, proteases, oxidative conditions, acidic conditions, and simulated gastric fluids. […] Various peptides were suspended in 500 μl of ddH2O at a stock concentration of 2 mg/ml. This was then diluted in accord with the reaction conditions to prevent adverse buffering effects. Reactions were prepared with 12.5 μg peptide dissolved in solution and, in some samples, additionally suspended in a 10 mM solution of DTT, simulated gastric fluid (pH 1.05; […] sodium chloride in 0.7% (v/v) hydrochloric acid), 500 U pepsin (5000 U/ml pepsin), 50 U trypsin (500 U/ml trypsin) with 1 mg/ml inhibitor in PBS, or a combination of any of these conditions. All protease reactions were incubated for 30 min at room temperature and then quenched. Pepsin reactions were quenched by adding Tris base to a final concentration of 0.075 M. Trypsin reactions were quenched by adding excess soybean trypsin inhibitor. RP-HPLC was then run on samples using an Agilent 1260 HPLC equipped with a C-18 Poroshell 120B column. Sample were analyzed by a gradient method with a mobile phase of Solvent A (water with 0.1% TFA) and Solvent B (acetonitrile with 0.1% TFA). Solvent B was ramped up from 5%-45% of the mobile phase over a period of 10 minutes.
FIG. 18 illustrates high performance liquid chromatograph (HPLC) traces of peptides in non-reducing (NR) conditions (solid trace) or in 10 mM DTT reducing (R) conditions (dashed trace). […]

A further data set has as its target trypsin (Sus scrofa, UniProt P00761). The experiment in a line: Trypsin digestion resistance of soluble peptide, RP-HPLC. In kind it is in vitro ADME, porcine. Set-up: purchased Sigma Aldrich 6567. The settings on record: 500 U/ml trypsin, 30 minutes at 37.5° C.; HPLC peak vs untreated peptide. The essentials: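 Read-out was RP-HPLC (C-18, water/acetonitrile with 0.1% TFA, 5-45% over 10 min) of peptide left after trypsin treatment. Digest: 12.5 μg peptide, 500 U/ml porcine trypsin, PBS, 37.5° C for 30 min, stopped by soybean trypsin inhibitor; samples then reduced (10 mM DTT) or left non-reduced.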

In the next data set the target is pepsin (Sus scrofa, UniProt P00791). As to the kind of experiment: Pepsin digestion resistance in simulated gastric fluid, RP-HPLC. Set-up: purchased Sigma Aldrich P7012. The settings on record: 500 U/ml pepsin in SGF pH 1.05, 30 minutes at 37.5° C.; HPLC peak vs untreated peptide. In kind it is in vitro ADME, porcine. The essentials: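 Digestion resistance read by reversed-phase HPLC (C-18, 0.1% TFA, 5–45% acetonitrile over 10 min; 214/280 nm) after 12.5 μg peptide spent 30 min at 37.5 °C in pH 1.05 simulated gastric fluid, with or without 500 U/ml pepsin. Some samples quenched with Tris base and DTT.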
pepsin, sequence (P00791 60-385): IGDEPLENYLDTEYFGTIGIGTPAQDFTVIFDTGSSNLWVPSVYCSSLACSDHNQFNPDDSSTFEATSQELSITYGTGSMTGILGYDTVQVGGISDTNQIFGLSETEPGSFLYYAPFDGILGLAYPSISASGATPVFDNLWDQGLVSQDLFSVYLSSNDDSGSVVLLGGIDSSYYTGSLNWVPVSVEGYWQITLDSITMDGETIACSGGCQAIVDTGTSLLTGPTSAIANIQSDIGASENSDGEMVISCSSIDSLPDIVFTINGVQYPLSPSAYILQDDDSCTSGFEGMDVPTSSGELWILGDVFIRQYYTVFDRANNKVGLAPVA

trypsin, sequence (P00761 9-231): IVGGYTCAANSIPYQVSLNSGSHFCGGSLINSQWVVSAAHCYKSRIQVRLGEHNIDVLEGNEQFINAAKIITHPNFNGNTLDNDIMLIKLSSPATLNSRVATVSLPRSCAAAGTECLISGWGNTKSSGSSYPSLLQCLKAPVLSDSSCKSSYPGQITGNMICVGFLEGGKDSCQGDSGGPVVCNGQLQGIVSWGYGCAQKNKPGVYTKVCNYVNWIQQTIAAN

Regarding “14 (GSSDYCSNDFCFFSCRRDRCARGDCENGKCVCKNCHLN) [compound 14]”, in data set [1], the “Resistance to Temperature (75° C.)” value is “High (A peptide classified as high indicates that the majority (at least 75%) of the HPLC peak of the treated peptide is still present as compared to the HPLC peak of the untreated peptide)” and the “Resistance to Temperature (100° C.)” value was “High (A peptide classified as high indicates that the majority (at least 75%) of the HPLC peak of the treated peptide is still present as compared to the HPLC peak of the untreated peptide)”. In data set [2], the “Resistance to DTT Reduction (10 mM)” value is given as “Low (A peptide classified as low indicates that the majority (over 75%) of the HPLC peak of the treated peptide disappeared as compared to the HPLC peak of the untreated peptide)”. Also, in the data set with trypsin, the “Resistance to Trypsin (500 U/ml)” value is listed as “Low (A peptide classified as low indicates that the majority (over 75%) of the HPLC peak of the treated peptide disappeared as compared to the HPLC peak of the untreated peptide)”. In addition, the “Resistance to Pepsin (500 U/ml)” value with pepsin is “Moderate (A peptide classified as medium indicates that about half (between 25% and 75%) of the HPLC peak of the treated peptide disappeared as compared to the HPLC peak of the untreated peptide)”.

Take “15 (GSCIGEGVPCDENDPRCCFGLVCLKPTLHGIWYKSYYCYKK) [compound 15]”: in data set [1], the “Resistance to Temperature (75° C.)” value is recorded as “High (A peptide classified as high indicates that the majority (at least 75%) of the HPLC peak of the treated peptide is still present as compared to the HPLC peak of the untreated peptide)” and the “Resistance to Temperature (100° C.)” value is “Low (A peptide classified as low indicates that the majority (over 75%) of the HPLC peak of the treated peptide disappeared as compared to the HPLC peak of the untreated peptide)”. In data set [2], the “Resistance to DTT Reduction (10 mM)” value is on record as “Low (A peptide classified as low indicates that the majority (over 75%) of the HPLC peak of the treated peptide disappeared as compared to the HPLC peak of the untreated peptide)”. Moreover, the “Resistance to Trypsin (500 U/ml)” value in the data set with trypsin was “Low (A peptide classified as low indicates that the majority (over 75%) of the HPLC peak of the treated peptide disappeared as compared to the HPLC peak of the untreated peptide)”. Besides, the “Resistance to Pepsin (500 U/ml)” value in the data set with pepsin is on record as “High (A peptide classified as high indicates that the majority (at least 75%) of the HPLC peak of the treated peptide is still present as compared to the HPLC peak of the untreated peptide)”.

For the substance “16 (GSSCAKPGEMCMRIKCCDGQCGCNRGTGRCFCK) [compound 16]”, in data set [1], the “Resistance to Temperature (75° C.)” value is “High (A peptide classified as high indicates that the majority (at least 75%) of the HPLC peak of the treated peptide is still present as compared to the HPLC peak of the untreated peptide)” and the “Resistance to Temperature (100° C.)” value was “Low (A peptide classified as low indicates that the majority (over 75%) of the HPLC peak of the treated peptide disappeared as compared to the HPLC peak of the untreated peptide)”. In addition, the “Resistance to DTT Reduction (10 mM)” value in data set [2] is given as “Low (A peptide classified as low indicates that the majority (over 75%) of the HPLC peak of the treated peptide disappeared as compared to the HPLC peak of the untreated peptide)”. Moreover, the “Resistance to Trypsin (500 U/ml)” value with trypsin is “Low (A peptide classified as low indicates that the majority (over 75%) of the HPLC peak of the treated peptide disappeared as compared to the HPLC peak of the untreated peptide)”. Further, in the data set with pepsin, the “Resistance to Pepsin (500 U/ml)” value was “High (A peptide classified as high indicates that the majority (at least 75%) of the HPLC peak of the treated peptide is still present as compared to the HPLC peak of the untreated peptide)”.

As for “17 (GSACQFWSCNSSCISRGYRQGYCWGIQYKYCQCQ) [compound 17]”, in data set [1], the “Resistance to Temperature (75° C.)” value was “High (A peptide classified as high indicates that the majority (at least 75%) of the HPLC peak of the treated peptide is still present as compared to the HPLC peak of the untreated peptide)” and the “Resistance to Temperature (100° C.)” value was “High (A peptide classified as high indicates that the majority (at least 75%) of the HPLC peak of the treated peptide is still present as compared to the HPLC peak of the untreated peptide)”. Moreover, the “Resistance to DTT Reduction (10 mM)” value in data set [2] was “Moderate (A peptide classified as medium indicates that about half (between 25% and 75%) of the HPLC peak of the treated peptide disappeared as compared to the HPLC peak of the untreated peptide)”. In addition, in the data set with trypsin, the “Resistance to Trypsin (500 U/ml)” value is “Low (A peptide classified as low indicates that the majority (over 75%) of the HPLC peak of the treated peptide disappeared as compared to the HPLC peak of the untreated peptide)”. The “Resistance to Pepsin (500 U/ml)” value with pepsin is “High (A peptide classified as high indicates that the majority (at least 75%) of the HPLC peak of the treated peptide is still present as compared to the HPLC peak of the untreated peptide)”.

“19 (GSQDKCKKVYENYPVSKCQLANQCNYDCKLDKHARSGECFYDEKRNLQCICDYCEY) [compound 19]”: in data set [1], the “Resistance to Temperature (75° C.)” value was “High (A peptide classified as high indicates that the majority (at least 75%) of the HPLC peak of the treated peptide is still present as compared to the HPLC peak of the untreated peptide)”; the “Resistance to Temperature (100° C.)” value is “Moderate (A peptide classified as medium indicates that about half (between 25% and 75%) of the HPLC peak of the treated peptide disappeared as compared to the HPLC peak of the untreated peptide)”. The “Resistance to DTT Reduction (10 mM)” value in data set [2] was “Low (A peptide classified as low indicates that the majority (over 75%) of the HPLC peak of the treated peptide disappeared as compared to the HPLC peak of the untreated peptide)”. The “Resistance to Trypsin (500 U/ml)” value in the data set with trypsin was “High (A peptide classified as high indicates that the majority (at least 75%) of the HPLC peak of the treated peptide is still present as compared to the HPLC peak of the untreated peptide)”. In addition, the “Resistance to Pepsin (500 U/ml)” value with pepsin was “High (A peptide classified as high indicates that the majority (at least 75%) of the HPLC peak of the treated peptide is still present as compared to the HPLC peak of the untreated peptide)”.
